Substitutions are numbered along the chain they refer to. Names may count otherwise.
T1: QP098 (cyno SIRPα (I7G9Z7) ECD(E31-R369)-flag-his) (cynomolgus)
T1 construct: the construct carries flag and his tags; also called cynoSIRPα (ECD); cynomolgus SIRPα
T1 chain: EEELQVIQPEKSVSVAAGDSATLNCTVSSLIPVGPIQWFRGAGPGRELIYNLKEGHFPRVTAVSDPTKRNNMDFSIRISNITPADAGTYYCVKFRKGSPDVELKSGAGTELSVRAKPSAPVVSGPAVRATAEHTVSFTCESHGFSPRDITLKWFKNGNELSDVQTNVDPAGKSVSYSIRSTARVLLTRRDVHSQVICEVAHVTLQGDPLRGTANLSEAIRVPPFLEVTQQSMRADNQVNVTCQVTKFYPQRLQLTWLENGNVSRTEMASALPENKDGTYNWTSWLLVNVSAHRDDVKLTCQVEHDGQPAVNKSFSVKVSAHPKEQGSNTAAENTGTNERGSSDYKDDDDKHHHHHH

T2: QP271 (rhesus SIRPα1-flag-his T-557-28) (rhesus monkey)
T2 construct: also called rhesus monkey SIRPα (QP271); monkeySIRPα1-flag-his
T2 chain: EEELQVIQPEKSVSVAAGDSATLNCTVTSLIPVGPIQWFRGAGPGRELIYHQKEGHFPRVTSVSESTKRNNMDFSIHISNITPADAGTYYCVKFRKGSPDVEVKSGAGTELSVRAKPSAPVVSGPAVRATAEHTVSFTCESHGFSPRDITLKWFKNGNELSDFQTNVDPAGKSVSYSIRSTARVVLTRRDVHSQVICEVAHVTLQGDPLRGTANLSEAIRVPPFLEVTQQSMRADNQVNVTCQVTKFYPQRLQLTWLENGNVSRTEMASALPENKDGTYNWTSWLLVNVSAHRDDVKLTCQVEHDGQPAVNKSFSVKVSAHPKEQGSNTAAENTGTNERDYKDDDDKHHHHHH

T3: QP273 (cynoSIRPα2-flag-his T-557-14) (cynomolgus)
T3 construct: also called cynomolgus SIRPα (QP273)
T3 chain: T2 chain with D19E, V27A, A42V, H51S, S62P, E65D, S66P, H77R, V103L

T4: QP100 (cyno SIRPα (G7PGS8) ECD(E29-R368)-flag-his) (cynomolgus)
T4 construct: the construct carries flag and his tags; also called cynoSIRPα-flag-his; Cynomolgus SIRPα (QP100)
T4 chain: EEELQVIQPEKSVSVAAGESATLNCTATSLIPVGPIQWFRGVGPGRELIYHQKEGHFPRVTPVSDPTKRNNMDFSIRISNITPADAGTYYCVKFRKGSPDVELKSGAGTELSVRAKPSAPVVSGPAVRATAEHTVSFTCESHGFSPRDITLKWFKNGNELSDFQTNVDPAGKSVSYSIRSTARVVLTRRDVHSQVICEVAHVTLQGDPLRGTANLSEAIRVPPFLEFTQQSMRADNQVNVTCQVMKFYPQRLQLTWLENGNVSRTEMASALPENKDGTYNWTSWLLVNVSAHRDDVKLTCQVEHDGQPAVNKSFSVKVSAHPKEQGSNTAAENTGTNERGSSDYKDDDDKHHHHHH

B1: QP2561770 (antibody, human IgG4, V domains shown)
VH: QVQLVQSGAEVKKPGASVKVSCKASGYTFTNYWINWVRQAPGQGLEWIAMIDPSDSETHYNQIFKDRATLTTDTSTSTAYMELRSLRSDDTAVYYCAMDYGSLYAMDYWGRGTLVTVSS
VL: DIVLTQSPDSLAVSLGERATINCRASQSVRSSGYNWIFWYQQKPGQPPKLLIYLASNRDSGVPDRFSGSGSGTDFTLTISSLQAEDVAVYYCQESRELPTFGQGTKLEIK
notes: Human IgG4 heavy constant region and kappa CL
B2: QP2561586 (antibody, human IgG4, V domains shown)
VH: B1 VH
VL: B1 VL with Q27K, R30S, W36Y, R58L
notes: as for B1
B3: QP2561589 (antibody, human IgG4, V domains shown)
VH: B1 VH
VL: B1 VL with Q27K, R30S, W36Y, R58L, R96W
notes: as for B1
B4: QP2561581 (antibody, human IgG4, V domains shown)
VH: B1 VH
VL: B1 VL with Q27K, R30S, W36Y, R58L, S60P, E94H
notes: as for B1
B5: QP32700624 (bispecific antibody, human IgG1, kappa, L234A L235A)
heavy: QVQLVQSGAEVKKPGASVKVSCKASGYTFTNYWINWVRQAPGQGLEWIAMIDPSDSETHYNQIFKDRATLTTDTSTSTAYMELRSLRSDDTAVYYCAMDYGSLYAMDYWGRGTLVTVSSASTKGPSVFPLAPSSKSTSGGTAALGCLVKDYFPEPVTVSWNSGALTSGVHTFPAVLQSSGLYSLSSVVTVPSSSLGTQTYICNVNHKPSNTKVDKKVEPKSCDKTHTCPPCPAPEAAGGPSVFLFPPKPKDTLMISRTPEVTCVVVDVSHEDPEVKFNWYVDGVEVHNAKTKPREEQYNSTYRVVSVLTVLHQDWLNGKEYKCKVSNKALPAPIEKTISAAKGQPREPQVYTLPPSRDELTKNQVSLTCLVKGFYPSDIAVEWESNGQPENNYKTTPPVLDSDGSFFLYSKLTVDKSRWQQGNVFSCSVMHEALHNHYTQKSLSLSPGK
light: EVQLLESGGGLVQPGGSLRLSCAASGFTLDDYAIGWFRQAPGKGREGVSCISKSGETTFFVESVKDRFTISRDNSKNTLYLQMNSLRAEDTAVYYCATGSWCTVGSMSRQFYRQFFHSWGQGTLVTVSSGGGGSGGGGSDIVLTQSPDSLAVSLGERATINCRASQSVRSSGYNWIFWYQQKPGQPPKLLIYLASNRDSGVPDRFSGSGSGTDFTLTISSLQAEDVAVYYCQHSRELPTFGQGTKLEIKRTVAAPSVFIFPPSDEQLKSGTASVVCLLNNFYPREAKVQWKVDNALQSGNSQESVTEQDSKDSTYSLSSTLTLSKADYEKHKVYACEVTHQGLSSPVTKSFNRGEC
notes: Anti-PD-L1 VHH-(G4S)2 fused to the N-terminus of the light chain
B6: QP256291 (antibody, human IgG4, V domains shown)
VH: B1 VH
VL: B1 VL with Q27K, R30G, I37L, E94H
notes: as for B1
B7: QP2561594 (antibody, human IgG4, V domains shown)
VH: B1 VH
VL: B1 VL with Q27K, R30S, W36Y, R58L, E94H, E97D
notes: as for B1
B8: QP2561771 (antibody, human IgG4, V domains shown)
VH: B1 VH
VL: B1 VL with Q27K, R30S
notes: as for B1
B9: QP32700623 (bispecific antibody, human IgG1, kappa, L234A L235A)
heavy: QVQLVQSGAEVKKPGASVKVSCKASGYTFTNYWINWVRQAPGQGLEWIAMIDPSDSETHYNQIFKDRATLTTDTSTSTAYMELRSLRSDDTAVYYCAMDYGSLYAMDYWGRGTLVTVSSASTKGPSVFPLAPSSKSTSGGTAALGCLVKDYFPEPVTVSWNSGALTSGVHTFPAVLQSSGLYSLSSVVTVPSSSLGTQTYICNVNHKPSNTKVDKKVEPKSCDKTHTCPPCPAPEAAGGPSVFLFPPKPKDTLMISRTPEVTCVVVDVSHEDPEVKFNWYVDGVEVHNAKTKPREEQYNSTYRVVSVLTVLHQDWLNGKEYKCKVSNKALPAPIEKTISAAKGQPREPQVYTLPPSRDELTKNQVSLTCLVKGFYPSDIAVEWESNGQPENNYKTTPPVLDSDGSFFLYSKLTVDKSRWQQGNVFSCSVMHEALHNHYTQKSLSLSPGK
light: EVQLLESGGGLVQPGGSLRLSCAASGFTLDDYAIGWFRQAPGKGREGVSCISKSGETTFFVESVKDRFTISRDNSKNTLYLQMNSLRAEDTAVYYCATGSWCTVGSMSRQFYRQFFHSWGQGTLVTVSSGGGGSDIVLTQSPDSLAVSLGERATINCRASQSVRSSGYNWIFWYQQKPGQPPKLLIYLASNRDSGVPDRFSGSGSGTDFTLTISSLQAEDVAVYYCQHSRELPTFGQGTKLEIKRTVAAPSVFIFPPSDEQLKSGTASVVCLLNNFYPREAKVQWKVDNALQSGNSQESVTEQDSKDSTYSLSSTLTLSKADYEKHKVYACEVTHQGLSSPVTKSFNRGEC
notes: Anti-PD-L1 VHH-G4S fused to the N-terminus of the light chain
B10: QP06260279 (bispecific antibody, human IgG1, kappa, L234A L235A)
heavy: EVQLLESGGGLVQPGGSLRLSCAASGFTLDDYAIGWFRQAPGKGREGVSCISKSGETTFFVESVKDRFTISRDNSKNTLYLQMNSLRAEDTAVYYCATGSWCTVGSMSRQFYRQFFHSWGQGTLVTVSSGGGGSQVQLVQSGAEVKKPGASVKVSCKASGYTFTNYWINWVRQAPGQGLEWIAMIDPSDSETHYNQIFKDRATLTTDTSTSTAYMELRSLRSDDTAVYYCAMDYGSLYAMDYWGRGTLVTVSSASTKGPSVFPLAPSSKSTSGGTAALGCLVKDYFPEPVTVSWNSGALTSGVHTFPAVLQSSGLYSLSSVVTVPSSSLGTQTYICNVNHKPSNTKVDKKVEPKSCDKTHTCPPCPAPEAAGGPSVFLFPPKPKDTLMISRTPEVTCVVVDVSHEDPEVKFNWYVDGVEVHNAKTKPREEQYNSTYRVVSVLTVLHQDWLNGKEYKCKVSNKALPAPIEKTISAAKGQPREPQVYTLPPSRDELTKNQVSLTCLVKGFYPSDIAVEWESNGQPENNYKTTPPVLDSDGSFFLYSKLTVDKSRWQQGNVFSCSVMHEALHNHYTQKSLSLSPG
light: DIVLTQSPDSLAVSLGERATINCRASQSVRSSGYNWIFWYQQKPGQPPKLLIYLASNRDSGVPDRFSGSGSGTDFTLTISSLQAEDVAVYYCQHSRELPTFGQGTKLEIKRTVAAPSVFIFPPSDEQLKSGTASVVCLLNNFYPREAKVQWKVDNALQSGNSQESVTEQDSKDSTYSLSSTLTLSKADYEKHKVYACEVTHQGLSSPVTKSFNRGEC
notes: Anti-PD-L1 VHH-G4S fused to the N-terminus of the heavy chain
B11: QP06280279 (bispecific antibody, human IgG1, kappa, L234A L235A)
heavy: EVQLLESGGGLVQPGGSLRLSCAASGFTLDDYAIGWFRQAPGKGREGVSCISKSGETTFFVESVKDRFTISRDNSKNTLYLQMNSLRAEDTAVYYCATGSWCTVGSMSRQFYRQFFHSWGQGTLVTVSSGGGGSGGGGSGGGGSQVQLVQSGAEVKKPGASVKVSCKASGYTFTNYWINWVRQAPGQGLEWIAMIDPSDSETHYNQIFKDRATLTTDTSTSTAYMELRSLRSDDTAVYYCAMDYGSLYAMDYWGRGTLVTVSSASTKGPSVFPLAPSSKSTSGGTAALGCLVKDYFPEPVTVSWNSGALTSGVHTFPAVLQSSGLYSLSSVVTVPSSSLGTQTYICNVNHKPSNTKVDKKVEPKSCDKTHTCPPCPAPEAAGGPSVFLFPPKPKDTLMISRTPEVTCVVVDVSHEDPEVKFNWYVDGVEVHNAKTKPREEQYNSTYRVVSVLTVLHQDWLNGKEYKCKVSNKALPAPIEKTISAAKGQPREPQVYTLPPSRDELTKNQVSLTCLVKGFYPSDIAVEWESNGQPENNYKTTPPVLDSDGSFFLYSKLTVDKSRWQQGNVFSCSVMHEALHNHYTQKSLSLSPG
light: B10 light
notes: Anti-PD-L1 VHH-(G4S)3 fused to the N-terminus of the heavy chain
B12: QP06270279 (bispecific antibody, human IgG1, kappa, L234A L235A)
heavy: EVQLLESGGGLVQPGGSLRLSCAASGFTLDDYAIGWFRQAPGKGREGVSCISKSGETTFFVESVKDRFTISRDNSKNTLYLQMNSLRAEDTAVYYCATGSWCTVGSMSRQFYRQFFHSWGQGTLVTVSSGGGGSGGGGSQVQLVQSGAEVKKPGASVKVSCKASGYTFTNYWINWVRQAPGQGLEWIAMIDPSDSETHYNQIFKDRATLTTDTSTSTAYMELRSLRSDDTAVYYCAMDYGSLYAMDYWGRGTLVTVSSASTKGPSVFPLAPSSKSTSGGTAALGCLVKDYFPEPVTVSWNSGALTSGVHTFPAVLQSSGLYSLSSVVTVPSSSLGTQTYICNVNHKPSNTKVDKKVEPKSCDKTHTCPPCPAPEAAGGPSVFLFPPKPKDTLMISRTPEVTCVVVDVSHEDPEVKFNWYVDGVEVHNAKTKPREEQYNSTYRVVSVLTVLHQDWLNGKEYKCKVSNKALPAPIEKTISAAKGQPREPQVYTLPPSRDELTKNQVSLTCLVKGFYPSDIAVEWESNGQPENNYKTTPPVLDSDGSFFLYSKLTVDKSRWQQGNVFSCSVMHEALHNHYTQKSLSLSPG
light: B10 light
notes: Anti-PD-L1 VHH-(G4S)2 fused to the N-terminus of the heavy chain

The binders below were run against T5, QP094 (human SIRPα V1 ECD(E31-R370)-flag-his) (human, UniProt P78324 31-370) (assay: SPR, Biacore).
T5 construct: the construct carries flag and his tags; also called SIRPαV1-flag-his; SIRPαV1-his (QP094)
T5 sequence (P78324 other isoform, or with tags, fused parts or gaps limits assumed): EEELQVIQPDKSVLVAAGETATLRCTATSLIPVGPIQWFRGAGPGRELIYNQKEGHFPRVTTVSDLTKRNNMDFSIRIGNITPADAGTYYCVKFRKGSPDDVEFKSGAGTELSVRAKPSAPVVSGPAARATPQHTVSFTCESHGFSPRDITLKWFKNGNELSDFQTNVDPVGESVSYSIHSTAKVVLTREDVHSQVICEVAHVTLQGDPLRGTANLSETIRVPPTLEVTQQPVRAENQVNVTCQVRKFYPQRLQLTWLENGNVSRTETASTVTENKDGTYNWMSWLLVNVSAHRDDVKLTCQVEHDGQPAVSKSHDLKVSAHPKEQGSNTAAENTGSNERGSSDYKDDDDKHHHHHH

Row | Kd [nM] | Binder
1 | 0.0288 | B1
2 | 0.0597 | B2
3 | 0.085 | B3
4 | 0.137 | B4

The binders below were run against T6, QP096 (human SIRPα V2 ECD(E31-R370)-flag-his) (human) (assay: SPR, Biacore).
T6 construct: the construct carries flag and his tags; also called SIRPαV2-Flag-his; Human SIRPα V2 (QP096)
T6 sequence (chain, as listed by the source limits assumed): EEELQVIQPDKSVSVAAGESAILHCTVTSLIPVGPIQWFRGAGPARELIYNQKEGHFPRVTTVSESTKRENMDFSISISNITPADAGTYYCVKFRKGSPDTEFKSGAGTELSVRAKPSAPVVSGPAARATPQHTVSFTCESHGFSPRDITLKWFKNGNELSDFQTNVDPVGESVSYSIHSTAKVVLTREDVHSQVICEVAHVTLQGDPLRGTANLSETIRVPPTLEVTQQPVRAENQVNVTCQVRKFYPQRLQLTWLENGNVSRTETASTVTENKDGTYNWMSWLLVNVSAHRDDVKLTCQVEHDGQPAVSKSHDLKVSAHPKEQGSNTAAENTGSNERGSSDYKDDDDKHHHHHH

Row | Kd [nM] | Binder
5 | 0.0368 | B1
6 | 0.0891 | B2
7 | 0.0392 | B3
8 | 0.176 | B4

Molecular target: T1, QP098 (cyno SIRPα (I7G9Z7) …)
Assay: SPR, Biacore

Row | Kd [nM] | Binder
9 | 0.256 | B1
10 | 4.22 | B2
11 | 6.03 | B3

Molecular target: T2, QP271 (rhesus SIRPα1-flag-his T-557-28)
Assay: SPR, Biacore

Row | Kd [nM] | Binder
12 | 0.1 | B1
13 | 1.74 | B2
14 | 2.41 | B3

Molecular target: T3, QP273 (cynoSIRPα2-flag-his T-557-14)
Assay: SPR, Biacore

Row | Kd [nM] | Binder
15 | 0.163 | B1
16 | 2.22 | B2
17 | 3.2 | B3

These binders were tested against T7, PD-L1-his (QPP09) (human, UniProt Q9NZQ7 19-239, limits assumed) (assay: SPR, Biacore 8K).
T7 construct: also called human PD-L1; human PD-L1 recombinant protein
T7 sequence (Q9NZQ7 19-239 limits assumed): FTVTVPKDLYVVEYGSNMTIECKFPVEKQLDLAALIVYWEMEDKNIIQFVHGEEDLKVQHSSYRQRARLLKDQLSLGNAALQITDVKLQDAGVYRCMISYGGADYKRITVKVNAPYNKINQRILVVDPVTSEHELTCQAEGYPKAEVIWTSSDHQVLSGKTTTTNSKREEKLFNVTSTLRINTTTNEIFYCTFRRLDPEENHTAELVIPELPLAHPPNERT

Row | Kd [nM] | koff [s⁻¹] | kon [M⁻¹ s⁻¹] | Binder
18 | 1.64 | 0.00122 | 744000 | B5

These binders were tested against T5, QP094 (human SIRPα V1 …) (assay: binding ELISA, antigen coated).

Row | EC50 [ng/mL] | Binder
19 | 1.86 | B6
20 | 1.12 | B7
21 | 1.15 | B8
22 | 1.61 | B1
23 | 1.05 | B2
24 | 1.37 | B3
25 | 1.07 | B4

These binders were tested against T6, QP096 (human SIRPα V2 …) (assay: binding ELISA, antigen coated).

Row | EC50 [ng/mL] | Binder
26 | 1.43 | B6
27 | 1.05 | B7
28 | 1.13 | B8
29 | 1.36 | B1
30 | 1.11 | B2
31 | 1.17 | B3
32 | 0.862 | B4

Molecular target: T1, QP098 (cyno SIRPα (I7G9Z7) …)
Assay: binding ELISA, antigen coated

Row | EC50 [ng/mL] | Binder
33 | 1.57 | B6
34 | 1.13 | B7
35 | 1.08 | B8
36 | 1.3 | B1
37 | 1.2 | B2
38 | 1.6 | B3
39 | 0.918 | B4

Molecular target: T4, QP100 (cyno SIRPα (G7PGS8) …)
Assay: binding ELISA, antigen coated

Row | EC50 [ng/mL] | Binder
40 | 1.18 | B6
41 | 0.983 | B7
42 | 1.13 | B8
43 | 1.01 | B1
44 | 1.23 | B2
45 | 2.01 | B3
46 | 0.758 | B4

Molecular target: T2, QP271 (rhesus SIRPα1-flag-his T-557-28)
Assay: binding ELISA, antigen coated

Row | EC50 [ng/mL] | Binder
47 | 1.17 | B6
48 | 0.807 | B7
49 | 1.13 | B8
50 | 1.21 | B1
51 | 0.967 | B2
52 | 0.936 | B3
53 | 0.555 | B4

Molecular target: T3, QP273 (cynoSIRPα2-flag-his T-557-14)
Assay: binding ELISA, antigen coated

Row | EC50 [ng/mL] | Binder
54 | 1.62 | B6
55 | 2.35 | B7
56 | 1.22 | B8
57 | 1.68 | B1
58 | 1.03 | B2
59 | 1.43 | B3
60 | 0.921 | B4

What follows are binders tested against QP003 (PDL1-his) (assay: ELISA, QP003 (PDL1-his) captured on coated anti-his, anti-hFc detection; unit from the x axis Log(Conc.(nM))).
Sequence of QP003 (PDL1-his) (chain, as listed by the source limits assumed): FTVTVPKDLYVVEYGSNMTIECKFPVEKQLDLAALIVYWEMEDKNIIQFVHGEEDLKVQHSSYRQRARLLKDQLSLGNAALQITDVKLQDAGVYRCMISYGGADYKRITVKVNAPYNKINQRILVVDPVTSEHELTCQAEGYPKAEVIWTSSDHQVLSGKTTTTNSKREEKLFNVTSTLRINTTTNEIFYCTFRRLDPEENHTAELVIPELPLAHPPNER

Row | EC50 [nM] | Binder
61 | 0.0134 | B5
62 | 0.0205 | B9
63 | 0.0176 | B10
64 | 0.0215 | B11
65 | 0.0198 | B12

What follows are binders tested against T8, QP002 (biotinylated in the blocking assays, sites not given) (assay: blocking ELISA: QP001.2 (CD47) coated, biotin-QP002 (SIRPα-FC) mixed with the antibody, HRP-streptavidin; blocked ligand: CD47).
T8 construct: also called SIRPα-FC; Biotin-QP002
T8 sequence (SIRPα-Fc fusion chain, as listed by the source): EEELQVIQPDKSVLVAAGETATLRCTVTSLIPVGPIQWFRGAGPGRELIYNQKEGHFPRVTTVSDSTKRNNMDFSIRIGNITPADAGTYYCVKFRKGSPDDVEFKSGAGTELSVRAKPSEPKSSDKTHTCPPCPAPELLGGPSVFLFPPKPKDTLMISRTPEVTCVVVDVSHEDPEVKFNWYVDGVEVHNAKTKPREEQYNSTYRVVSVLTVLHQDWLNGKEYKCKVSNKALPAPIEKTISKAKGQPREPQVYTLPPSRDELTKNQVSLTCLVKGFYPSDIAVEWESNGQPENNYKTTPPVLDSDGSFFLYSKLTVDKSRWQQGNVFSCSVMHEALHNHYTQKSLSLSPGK

Row | IC50 (read off the curve) [ng/mL] | Binder
66 | ~20 | B7
67 | ~20 | B2
68 | ~20 | B3
69 | ~20 | B4

Each binder was assayed against PD-L1-mouse Fc protein (human, UniProt Q9NZQ7 19-239, limits assumed) (assay: blocking ELISA: QP1138 (PD1-FC) coated, PDL1-mouse FC mixed with the antibody, HRP anti-mouse IgG; blocked partner: PD-1; unit from the x axis Log(Conc.(nM))).
Sequence of PD-L1-mouse Fc protein (Q9NZQ7 19-239 limits assumed): as the sequence (Q9NZQ7 19-239 limits assumed) above

Row | IC50 [nM] | Binder
70 | 0.663 | B5

These binders were tested against T8, QP002 (assay: blocking ELISA: QP001.2 (CD47) coated, biotin-QP002 (SIRPα-FC) mixed with the antibody, HRP-streptavidin; blocked ligand: CD47; unit from the x axis Log[Conc.(ug/ml)]).

Row | IC50 [ng/mL] | Binder
71 | 23.4 | B6
72 | 23.3 | B8
73 | 25 | B1
